# B1: Transient receptor potential cation channel subfamily M member 7 (Mus musculus), Q923J1 (parent)
# chain: MSQKSWIESTLTKRECVYIIPSSKDPHRCLPGCQICQQLVRCFCGRLVKQHACFTASLAMKYSDVKLGEHFNQAIEEWSVEKHTEQSPTDAYGVINFQGGSHSYRAKYVRLSYDTKPEIILQLLLKEWQMELPKLVISVHGGMQKFELHPRIKQLLGKGLIKAAVTTGAWILTGGVNTGVAKHVGDALKEHASRSSRKICTIGIAPWGVIENRNDLVGRDVVAPYQTLLNPLSKLNVLNNLHSHFILVDDGTVGKYGAEVRLRRELEKTINQQRIHARIGQGVPVVALIFEGGPNVILTVLEYLQESPPVPVVVCEGTGRAADLLAYIHKQTEEGGNLPDAAEPDIISTIKKTFNFGQSEAVHLFQTMMECMKKKELITVFHIGSEDHQDIDVAILTALLKGTNASAFDQLILTLAWDRVDIAKNHVFVYGQQWLVGSLEQAMLDALVMDRVSFVKLLIENGVSMHKFLTIPRLEELYNTKQGPTNPMLFHLIRDVKQGNLPPGYKITLIDIGLVIEYLMGGTYRCTYTRKRFRLIYNSLGGNNRRSGRNTSSSTPQLRKSHETFGNRADKKEKMRHNHFIKTAQPYRPKMDASMEEGKKKRTKDEIVDIDDPETKRFPYPLNELLIWACLMKRQVMARFLWQHGEESMAKALVACKIYRSMAYEAKQSDLVDDTSEELKQYSNDFGQLAVELLEQSFRQDETMAMKLLTYELKNWSNSTCLKLAVSSRLRPFVAHTCTQMLLSDMWMGRLNMRKNSWYKVILSILVPPAILMLEYKTKAEMSHIPQSQDAHQMTMEDSENNFHNITEEIPMEVFKEVKILDSSDGKNEMEIHIKSKKLPITRKFYAFYHAPIVKFWFNTLAYLGFLMLYTFVVLVKMEQLPSVQEWIVIAYIFTYAIEKVREVFMSEAGKISQKIKVWFSDYFNVSDTIAIISFFVGFGLRFGAKWNYINAYDNHVFVAGRLIYCLNIIFWYVRLLDFLAVNQQAGPYVMMIGKMVANMFYIVVIMALVLLSFGVPRKAILYPHEEPSWSLAKDIVFHPYWMIFGEVYAYEIDVCANDSTLPTICGPGTWLTPFLQAVYLFVQYIIMVNLLIAFFNNVYLQVKAISNIVWKYQRYHFIMAYHEKPVLPPPLIILSHIVSLFCCVCKRRKKDKTSDGPKLFLTEEDQKKLHDFEEQCVEMYFDEKDDKFNSGSEERIRVTFERVEQMSIQIKEVGDRVNYIKRSLQSLDSQIGHLQDLSALTVDTLKTLTAQKASEASKVHNEITRELSISKHLAQNLIDDVPVRPLWKKPSAVNTLSSSLPQGDRESNNPFLCNIFMKDEKDPQYNLFGQDLPVIPQRKEFNIPEAGSSCGALFPSAVSPPELRQRRHGVEMLKIFNKNQKLGSSPNSSPHMSSPPTKFSVSTPSQPSCKSHLESTTKDQEPIFYKAAEGDNIEFGAFVGHRDSMDLQRFKETSNKIRELLSNDTPENTLKHVGAAGYSECCKTSTSLHSVQAESCSRRASTEDSPEVDSKAALLPDWLRDRPSNREMPSEGGTLNGLASPFKPVLDTNYYYSAVERNNLMRLSQSIPFVPVPPRGEPVTVYRLEESSPSILNNSMSSWSQLGLCAKIEFLSKEEMGGGLRRAVKVLCTWSEHDILKSGHLYIIKSFLPEVINTWSSIYKEDTVLHLCLREIQQQRAAQKLTFAFNQMKPKSIPYSPRFLEVFLLYCHSAGQWFAVEECMTGEFRKYNNNNGDEIIPTNTLEEIMLAFSHWTYEYTRGELLVLDLQGVGENLTDPSVIKAEEKRSCDMVFGPANLGEDAIKNFRAKHHCNSCCRKLKLPDLKRNDYTPDKIIFPQDESSDLNLQSGNSTKESEATNSVRLML
# Variants of: B1
# Conditions: with myh9_mouse Myh9, Q8VDD5
# Chain of myh9_mouse Myh9, Q8VDD5 (Q8VDD5 whole entry): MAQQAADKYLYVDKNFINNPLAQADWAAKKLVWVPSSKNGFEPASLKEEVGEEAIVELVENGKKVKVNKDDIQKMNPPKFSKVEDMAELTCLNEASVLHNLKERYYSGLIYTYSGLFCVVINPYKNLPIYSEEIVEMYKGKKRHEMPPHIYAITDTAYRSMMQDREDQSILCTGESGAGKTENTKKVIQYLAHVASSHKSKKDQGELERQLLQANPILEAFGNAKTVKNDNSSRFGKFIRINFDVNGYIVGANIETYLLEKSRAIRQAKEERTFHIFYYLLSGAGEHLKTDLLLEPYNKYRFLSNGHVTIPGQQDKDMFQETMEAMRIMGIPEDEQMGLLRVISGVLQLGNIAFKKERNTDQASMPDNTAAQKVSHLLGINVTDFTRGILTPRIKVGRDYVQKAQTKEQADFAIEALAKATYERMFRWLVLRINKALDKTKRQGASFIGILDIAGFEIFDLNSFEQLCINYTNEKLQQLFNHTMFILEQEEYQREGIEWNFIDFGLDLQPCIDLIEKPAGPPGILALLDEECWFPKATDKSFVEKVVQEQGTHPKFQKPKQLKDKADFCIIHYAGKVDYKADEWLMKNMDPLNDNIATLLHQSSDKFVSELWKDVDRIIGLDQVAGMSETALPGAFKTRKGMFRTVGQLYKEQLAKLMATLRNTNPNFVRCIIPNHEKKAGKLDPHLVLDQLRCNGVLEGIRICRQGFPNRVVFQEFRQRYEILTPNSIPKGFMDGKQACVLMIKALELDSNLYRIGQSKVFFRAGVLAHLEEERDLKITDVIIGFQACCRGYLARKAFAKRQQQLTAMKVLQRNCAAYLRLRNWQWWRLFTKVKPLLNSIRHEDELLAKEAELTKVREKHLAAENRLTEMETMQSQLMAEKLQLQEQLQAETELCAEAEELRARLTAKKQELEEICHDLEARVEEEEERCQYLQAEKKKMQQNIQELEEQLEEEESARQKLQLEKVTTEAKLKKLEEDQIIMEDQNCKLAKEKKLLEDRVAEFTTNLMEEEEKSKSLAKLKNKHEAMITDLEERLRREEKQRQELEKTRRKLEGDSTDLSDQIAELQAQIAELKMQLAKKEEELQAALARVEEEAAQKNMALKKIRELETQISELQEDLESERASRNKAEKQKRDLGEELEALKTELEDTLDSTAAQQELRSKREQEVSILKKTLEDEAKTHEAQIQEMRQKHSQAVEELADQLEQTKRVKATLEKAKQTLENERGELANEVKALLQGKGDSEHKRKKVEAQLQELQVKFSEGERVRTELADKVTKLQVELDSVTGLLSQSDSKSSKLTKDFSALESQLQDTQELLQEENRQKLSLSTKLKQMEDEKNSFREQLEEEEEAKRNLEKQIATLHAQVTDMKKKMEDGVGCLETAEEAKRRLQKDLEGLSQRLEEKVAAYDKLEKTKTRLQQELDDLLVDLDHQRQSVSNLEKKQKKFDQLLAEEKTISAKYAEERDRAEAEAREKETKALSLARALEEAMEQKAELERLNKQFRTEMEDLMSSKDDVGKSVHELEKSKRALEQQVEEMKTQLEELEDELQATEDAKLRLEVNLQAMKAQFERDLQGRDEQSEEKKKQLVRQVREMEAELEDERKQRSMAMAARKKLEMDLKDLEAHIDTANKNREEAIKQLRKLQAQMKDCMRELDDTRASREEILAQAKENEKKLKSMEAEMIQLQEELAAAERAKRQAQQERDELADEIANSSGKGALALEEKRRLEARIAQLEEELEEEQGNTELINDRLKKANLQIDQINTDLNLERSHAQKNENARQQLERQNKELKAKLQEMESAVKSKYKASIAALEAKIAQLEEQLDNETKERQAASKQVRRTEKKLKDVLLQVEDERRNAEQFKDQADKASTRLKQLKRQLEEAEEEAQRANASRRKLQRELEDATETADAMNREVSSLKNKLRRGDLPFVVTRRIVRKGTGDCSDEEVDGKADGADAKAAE
row,Variant,effect of a mutation on the interaction
1,D1775A,decreasing interaction
